In the supplement of paper PMC9170038:

System: MS2 coat protein
Experiment: apparent KD of MS2 coat protein; designed switch direction (-1 OFF switch, 1 ON switch): 1; higher = weaker reporter binding
In short: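 Each step of the titration lasted 0.8–1.5 h at the lowest concentration and 10–20 min at the highest. The protein, SNAP-549-labelled MS2 coat protein, went from 0.7 or 1.5 nM doubling to 3 µM over RNA switches transcribed on Illumina chips by stalled E. coli RNA polymerase. Normalised cluster fluorescence was curve-fitted, and the per-design median over clusters is given as apparent KD.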

[1] = input ligand: microRNA oligo, concentration not stated
[2] = Eterna round: R95, input ligand: FMN 200 uM
[3] = Eterna round: R95, input ligand: microRNA oligo, concentration not stated
[4] = Eterna round: R95, input ligand: none

| Sequence | apparent KD of MS2 coat protein (input ligand: FMN 200 uM) | apparent KD of MS2 coat protein [1] | apparent KD of MS2 coat protein (input ligand: none) | apparent KD of MS2 coat protein [2] | apparent KD of MS2 coat protein [3] | apparent KD of MS2 coat protein [4] |
| --- | --- | --- | --- | --- | --- | --- |
| AUUAUUUAUGCAGGAUAUGAUUAACAUGAGGAUCACCCAUGUGGUGUUGUGAGUAAGGAGAGUGAUCAGAAGGGCAUUUUAUUU [JMF's solution 50] (Eterna round: R96, puzzle: Same State NG 2) | 1560 nM | 522 nM | 571 nM |  |  |  |
| UAUUAAGCUGUAGGAUAUCUAGGAUAUGGACGAGGAUCACCCGAGCAGCAUCAGCGCACCAGAGGAGAGAAGGACGCUUUGGAA [pwkr ssNG2 2F5 2FMN.3] (Eterna round: R96, puzzle: Same State NG 2) | 463 nM | 882 nM | 916 nM |  |  |  |
| AGUCCAGCCUGAGCUGGACAAAAGCAUGUACAUGAGGAUCACCCAUGUUAUGUACAAGCUUUUUGCUCGUCUUAAAA [Zipper 46 - 15] (puzzle: Sensor for hsa-mir-208a) |  |  |  | 165 nM | 13 nM | 153 nM |
| AUUAUUUAUGCAGGAUAUGAUUAACAUGAGGAUCACCCAUGUGGUGUUGUGAGUAAGGAGAGUGAUCAGAAGGGCAUUUUUGUU [JMF's solution 53] (Eterna round: R96, puzzle: Same State NG 2) | 992 nM | 438 nM | 657 nM |  |  |  |
| GUUACAUGAGGAUCACCCAUGUAUGUGUGGGAGUAAGUGUCUUAGGAUAUCUAUUAUUUAAUUUAAGAGAAGGAAGAUUGUUGU [JMF's solution 22] (Eterna round: R96, puzzle: Same State NG 3) |  | 82.3 nM |  |  |  |  |
| AAAGACAUGAGGAUCACCCAUGUACAGACAAACCAGUCUGCACAGGAUAUCCCGAGGAUAACUCGGGAGAAGGGUGGCCAAAAC [Onveenes] (Eterna round: R96, puzzle: Same State NG 3) | 74.8 nM | 18.9 nM | 33.5 nM |  |  |  |
| GCCCAUAGUAUAUGGAUACAAGCUUUUUGACAUGAGGAUCACCCAUGUACUCGUCUUAUGUGCAGUCCGUAGACUGC [JL-shm-2.20 Brourd mod] (puzzle: Sensor for hsa-mir-208a) |  |  |  | 26.8 nM | 15.8 nM |  |
| GGGCCAGCUUGUGCUGGGCCUUCGCAUGCACAUGAGGAUCACCCAUGUCGUGUACAUGCUUGGUGCCCGUCUUUAAA [Photon Torp-13] (puzzle: Sensor for hsa-mir-208a) |  |  |  | 102 nM | 13.9 nM | 103 nM |
| GAAAGCAUGGGAGGAUAUAGCCUCUAUGAAAGGCUAGAAGGCCCUGGCCACAUGAGGAUCACCCAUGUGAAAUAAAUAGAAGAA [Raarceza] (Eterna round: R96, puzzle: Same State NG 1) | 28.9 nM | 96.9 nM | 218 nM |  |  |  |
| CCGAUGUAUGGAGGAUAUGGAGCCUUAUUGGCUCCAGAAGGCUAAUAACAUGAGGAUCACCCAUGUCGGCGGUCUAAUGACCGA [Eli NG1ss - 55] (Eterna round: R96, puzzle: Same State NG 1) | 48.2 nM | 49.3 nM | 112 nM |  |  |  |
| CCUUAACAGUGAGGAUAUCGUUGCGAUAAGUGACGAGAAGGCACUCAUGUGAAAUAAACAUACAUGAGGAUCACCCAUGUUGUG [Omei SS(NG)1 Bv5] (Eterna round: R96, puzzle: Same State NG 1) | 34.4 nM | 40 nM | 44.2 nM |  |  |  |
| ACACCACAUGAGGAUCACCCAUGUGUCAAUAACACAGGAUAUCACCCGGAAUACACCGGGUGAGAAGGGUGACCGA [Gesois] (puzzle: Same State 1) |  |  |  | 158 nM | 30.1 nM | 25.4 nM |
| UAUGAAUAGCAAGGAUAUUGAUAACAUGAGGAUCACCCAUGUAAUUGAUCGAGUUAGAUCAGUUACAAGAAGGUGCAAUUGAUU [JR_SSNG2_Sub035] (Eterna round: R96, puzzle: Same State NG 2) |  | 19.4 nM |  |  |  |  |
| GGUCGGACUCACAUGAGGAUCACCCAUGUUGCGGAAACGCAGCAGGAUAUCUGUCCGAAAAGGUCAGAGAAGGGCUAACCGACC [Fiskers NG3ss - 57] (Eterna round: R96, puzzle: Same State NG 3) | 197 nM | 596 nM | 1310 nM |  |  |  |
| CGAGGCGUACAUGAGGAUCACCCAUGUACCUAACAACAAAGCAAGGAUAUCCUGGCUAUAAUACAGGAGAAGGUGUGGUCCUUA [Eternabot solution 15] (Eterna round: R96, puzzle: Same State NG 3) |  | 107 nM |  |  |  |  |
| AUUAAACAUGAGGAUCACCCAUGUCAACAAAGUCGAGGAUAUGGGCAAAUUAUAUAAUAACCAGAAGGCGAAUAAU [salish99_ss1_r3_083] (puzzle: Same State 1) |  |  |  | 15.2 nM | 18.9 nM | 14.2 nM |
| UAAGAACAUGAGGAUCACCCAUGUGGAAAGAACACAGGAUAUCAUGGAAGAACGAAACCAUGAGAAGGGUGACACG [Raatis] (puzzle: Same State 1) |  |  |  | 6270 nM | 225 nM | 24.3 nM |
